Assay results published in paper PMC4486081 (Oncogene, 2015).

Target: Recombinant full length FAK (focal adhesion kinase), GST-tagged, phospho-Y397 (UniProt Q05397 1-1052, phosphotyrosine at 397)
Experiment: co-IP

Chain of Recombinant full length FAK (focal adhesion kinase), GST-tagged, phospho-Y397 (Q05397 whole entry): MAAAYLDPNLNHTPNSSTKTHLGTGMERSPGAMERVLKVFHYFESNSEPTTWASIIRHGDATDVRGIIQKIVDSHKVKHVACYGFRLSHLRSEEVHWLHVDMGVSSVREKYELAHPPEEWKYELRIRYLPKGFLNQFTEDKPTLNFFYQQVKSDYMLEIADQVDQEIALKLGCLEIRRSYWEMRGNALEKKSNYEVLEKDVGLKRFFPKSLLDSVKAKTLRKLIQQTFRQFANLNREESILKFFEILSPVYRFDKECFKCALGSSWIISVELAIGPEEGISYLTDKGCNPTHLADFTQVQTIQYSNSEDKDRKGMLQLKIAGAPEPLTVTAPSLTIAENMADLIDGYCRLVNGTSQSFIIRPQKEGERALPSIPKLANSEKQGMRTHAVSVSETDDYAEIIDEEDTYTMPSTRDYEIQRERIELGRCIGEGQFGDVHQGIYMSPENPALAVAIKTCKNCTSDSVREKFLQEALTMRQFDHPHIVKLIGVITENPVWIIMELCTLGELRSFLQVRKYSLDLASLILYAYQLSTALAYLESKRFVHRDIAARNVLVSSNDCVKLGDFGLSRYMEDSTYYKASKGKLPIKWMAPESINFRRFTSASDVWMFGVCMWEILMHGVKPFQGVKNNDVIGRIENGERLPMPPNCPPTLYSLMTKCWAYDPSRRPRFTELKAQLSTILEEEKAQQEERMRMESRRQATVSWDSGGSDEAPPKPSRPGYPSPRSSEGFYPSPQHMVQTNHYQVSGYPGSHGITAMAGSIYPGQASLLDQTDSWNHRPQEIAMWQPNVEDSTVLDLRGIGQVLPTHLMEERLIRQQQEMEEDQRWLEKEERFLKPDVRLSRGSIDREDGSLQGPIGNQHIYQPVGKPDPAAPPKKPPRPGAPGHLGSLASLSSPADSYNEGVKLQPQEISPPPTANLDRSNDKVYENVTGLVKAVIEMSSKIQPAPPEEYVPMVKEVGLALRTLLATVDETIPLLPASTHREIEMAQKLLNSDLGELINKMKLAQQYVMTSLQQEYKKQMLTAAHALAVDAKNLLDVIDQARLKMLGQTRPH

B1: Recombinant active PKM2 (pyruvate kinase M2), 1-531 aa with N-terminal His-tag (enzyme)
chain: not shown
binding result: binds
